Data reported in paper PMC3404088, “Development of a Small D-Enantiomeric Alzheimer’s Amyloid-β Binding Peptide Ligand for Future In Vivo Imaging Applications” (PLoS ONE, 2012).
Square brackets hold non-standard residues; d marks the D form. Primed or numbered codes have the meaning given here. Ends that are not written are not given here. FITC′ = fluorescein isothiocyanate (ϕ)

Columns and labels:
Settings in all cases: both partners purified
[1] = molecular target: T1, Aβ1–42 fibrils (UniProt P05067 672-713); assay: SPR; Biacore 1000; Aβ1–42 fibrils (6800 RU) immobilised on a CM5 chip by amine coupling; PBS pH 7.4; analytes 50 µg/ml, 5 µl/min for 2 minutes, ambient temperature; semi-quantitative: response in % of ACI-80-Kϕ
T1 construct: amyloid-β peptide Aβ1–42, cut from the amyloid precursor protein (APP), in fibrillar form; Aggregated (fibrillar) state of the same peptide as m15; also called fibrillar Aß1–42; Aβ fibrils; source: bought: JPT Biotech or Bachem AG (HPLC purified peptide); fibrils formed at 37°C (7 days in PBS pH 7.4 for SPR; five days in 50 mM Tris-HCl pH 7.4 for ELISA)

[2] = molecular target: T1, Aβ1–42 fibrils; assay: SPR; Biacore T100, single-cycle mode, 25°C; Aβ1–42 fibrils immobilised on a CM5 chip by amine coupling; PBS pH 7.4, 30 µl/min; 100 to 62500 nM in fivefold steps, 60 s each; heterogeneous ligand model
[3] = molecular target: T2, Aβ1–42 peptide film (mostly monomeric Aβ1–42) (UniProt P05067 672-713); assay: ELISA; Aβ1–42 peptide film (mostly monomers) coated on the plate (10 µg/ml, bicarbonate-carbonate buffer pH 9.6); D-compounds from 10 µg/ml, 2 h at 37°C; detected by anti-fluorescein isothiocyanate-AP, pNPP 2.5 h
T2 construct: amyloid-β peptide Aβ1–42, cut from the amyloid precursor protein (APP), freshly dissolved peptide film containing mostly monomers and smaller oligomers; Same peptide as m14, not fibrillised; also called Aβ1–42 monomers; Aβ peptide film; source: bought: Bachem (lyophilized powder); HFIP film, reconstituted with 0.54% DMSO in PBS

[4] = molecular target: T1, Aβ1–42 fibrils; assay: ELISA; Aβ1–42 fibrils coated on the plate (10 µg/ml, bicarbonate-carbonate buffer pH 9.6); D-compounds from 10 µg/ml, 2 h at 37°C; detected by anti-fluorescein isothiocyanate-AP, pNPP 2.5 h

T2 sequence (P05067 672-713): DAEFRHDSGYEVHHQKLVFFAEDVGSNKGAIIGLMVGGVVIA
T1 sequence (P05067 672-713): as above

Binder	Dissociation [%] (response 60 s after end of injection, relative to ACI-80-Kϕ) [1]	Interaction [%] (maximal response during injection, relative to ACI-80-Kϕ) [1]	K D1 (heterogeneous ligand model, site 1) [2]	K D2 (heterogeneous ligand model, site 2) [2]	k off1 (heterogeneous ligand model, site 1) [2]	k off2 (heterogeneous ligand model, site 2) [2]	k on1 (heterogeneous ligand model, site 1) [2]	k on2 (heterogeneous ligand model, site 2) [2]	% binding relative to ACI-80-Kϕ [3] [%]	binding value (ELISA, 10 ug/mL compound) [3]	% binding relative to ACI-80-Kϕ [4] [%]	binding value (ELISA, 10 ug/mL compound) [4]
[dP][dS][dH][dY][dR][dH][dI][dS][dP][dA][dQ][dK][dK](FITC′) (D-enantiomeric derivative of ACI-80 (D1): Q1P, V12K, added C-terminal lysine; also called D1-Q1P-V12K-Kϕ; source: synthetic peptide (JPT Peptide Technologies GmbH, Berlin)) [ACI-89-Kϕ]	533	518	8e-06	3.53e-06	0.162	0.0118	20300	3340	216	1.06	165	1.49
[dQ][dS][dH][dY][dR][dH][dI][dS][dP][dA][dQ][dK][dK](FITC′) (also: [19F]-4-fluorobenzoyl label, place not given here, D-enantiomeric derivative of ACI-80 (D1): V12K, added C-terminal lysine, fluorinated; The text says V12K was made to enable fluorination; also called D1-V12K-K[^19F]ϕ; source: synthetic peptide, reacted with [^19F]-N-succinimidyl-4-fluorobenzoate (SFB), HPLC purified) [[^19F]-ACI-87-Kϕ]	67	153							176	0.86	140	1.26
[dQ][dS][dH][dY][dR][dH][dI][dS][dP][dA][dQ][dV][dK](FITC′) (D-enantiomeric peptide ACI-80 (D1), selected by mirror image phage display on aggregated Aβ1–42, with an added C-terminal lysine; also called D1-Kϕ; source: synthetic peptide (JPT Peptide Technologies GmbH, Berlin)) [ACI-80-Kϕ]			5.38e-05	0.000115	0.0252	1.58	469	13700	100	0.49	100	0.9
[dQ][dS][dH][dY][dR][dH][dI][dS][dP][dA][dQ][dK][dK](FITC′) (D-enantiomeric derivative of ACI-80 (D1): V12K, added C-terminal lysine; also called D1-V12K-Kϕ; source: synthetic peptide (JPT Peptide Technologies GmbH, Berlin)) [ACI-87-Kϕ]	443	324	8.93e-06	2.59e-05	0.00184	0.0407	206	1570	122	0.79	103	0.93
[dP][dS][dH][dY][dR][dH][dI][dS][dP][dA][dQ][dV][dK](FITC′) (D-enantiomeric derivative of ACI-80 (D1): Q1P, added C-terminal lysine; also called D1-Q1P-Kϕ; source: synthetic peptide (JPT Peptide Technologies GmbH, Berlin)) [ACI-83-Kϕ]	200	600							214	1.05	167	1.5
[dP][dS][dF][dY][dR][dH][dI][dS][dP][dA][dQ][dV][dK](FITC′) (D-enantiomeric derivative of ACI-80 (D1): Q1P, H3F, added C-terminal lysine; also called D1-Q1P-H3F-Kϕ; source: synthetic peptide (JPT Peptide Technologies GmbH, Berlin)) [ACI-86-Kϕ]	40	21							163	0.8	138	1.24
[dS][dH][dY][dR][dH][dI][dS][dP][dA][dQ][dV][dK](FITC′) (D-enantiomeric derivative of ACI-80 (D1): N-terminal glutamine deleted (Q1X), added C-terminal lysine; also called D1-Q1X-Kϕ; source: synthetic peptide (JPT Peptide Technologies GmbH, Berlin)) [ACI-82-Kϕ]	300	393							167	0.82	142	1.28
[dS][dF][dY][dR][dH][dI][dS][dP][dA][dQ][dV][dK](FITC′) (D-enantiomeric derivative of ACI-80 (D1): N-terminal glutamine deleted (Q1X), H3F, added C-terminal lysine; also called D1-Q1X-H3F-Kϕ; source: synthetic peptide (JPT Peptide Technologies GmbH, Berlin)) [ACI-85-Kϕ]	40	229							129	0.63	111	1
[dS][dH][dY][dR][dH][dI][dS][dP][dA][dQ][dK][dK](FITC′) (D-enantiomeric derivative of ACI-80 (D1): N-terminal glutamine deleted (Q1X), V12K, added C-terminal lysine; also called D1-Q1X-V12K-Kϕ; source: synthetic peptide (JPT Peptide Technologies GmbH, Berlin)) [ACI-88-Kϕ]	667	365	4.22e-07	5.95e-05	0.00722	0.0553	17100	930	263	1.29	198	1.78
[dS][dH][dY][dR][dH][dI][dS][dP][dA][dQ][dK][dK](FITC′) (also: [19F]-4-fluorobenzoyl label, place not given here, D-enantiomeric derivative of ACI-80 (D1): N-terminal glutamine deleted (Q1X), V12K, added C-terminal lysine, fluorinated; also called D1-Q1X-V12K-K[^19F]ϕ; source: synthetic peptide, reacted with [^19F]-N-succinimidyl-4-fluorobenzoate (SFB), HPLC purified) [[^19F]-ACI-88-Kϕ]	1230	294							214	1.05	196	1.76
[dP][dS][dH][dY][dR][dH][dI][dS][dP][dA][dQ][dK][dK](FITC′) (also: [19F]-4-fluorobenzoyl label, place not given here, D-enantiomeric derivative of ACI-80 (D1): Q1P, V12K, added C-terminal lysine, fluorinated; also called D1-Q1P-V12K-K[^19F]ϕ; source: synthetic peptide, reacted with [^19F]-N-succinimidyl-4-fluorobenzoate (SFB), HPLC purified) [[^19F]-ACI-89-Kϕ]	0	476							243	1.19	207	1.86
